The results in this text go back to paper PMC11157482.

The test deals with Aβ42 wild-type (UniProt P05067). The test is described as follows: fluorescence correlation spectroscopy (FCS); oligomers formed from S8C-Alexa488 and WT Aβ42 monomers 1:1.5 (labeled/unlabeled), about 10 μM total, 37 °C, stopped at t1/2; fibrils removed by centrifugation, oligomeric fraction isolated on Superdex 75; measured alone (three replicates) or with unlabeled WT fibrils (six replicates) 3-7 min after start, 37 °C, 20 mM sodium phosphate, 0.2 mM EDTA, pH 8.0; three-component fit (free dye, monomer, oligomer).

Broadly, the stoichiometry N is the number of molecules, sites or subunits per partner or assembly. With Alexa-488-labeled Aβ42-S8C (peptide), the oligomer dissociation half-life (in the presence of unlabeled WT fibrils) was less than 7 min and the stoichiometry N stood at 37 monomers.
